Data taken from the supplement of paper PMC10065799, “High-throughput profiling of sequence recognition by tyrosine kinases and SH2 domains using bacterial peptide display” (eLife, 2023).

Assays:
AncSZ = test: phosphorylation enrichment, bacterial display (enrichment ratio); higher = better substrate or ligand; peptides without Tyr show the background
EPHB1 = EPHB1 (UniProt P54762); test: as above
EPHB2 = EPHB2 (UniProt P29323); test: as above
FGFR1 = FGFR1 (UniProt P11362); test: as above
FGFR3 = FGFR3 (UniProt P22607); test: as above
Sequence of FGFR3 (P22607 whole entry, looked up): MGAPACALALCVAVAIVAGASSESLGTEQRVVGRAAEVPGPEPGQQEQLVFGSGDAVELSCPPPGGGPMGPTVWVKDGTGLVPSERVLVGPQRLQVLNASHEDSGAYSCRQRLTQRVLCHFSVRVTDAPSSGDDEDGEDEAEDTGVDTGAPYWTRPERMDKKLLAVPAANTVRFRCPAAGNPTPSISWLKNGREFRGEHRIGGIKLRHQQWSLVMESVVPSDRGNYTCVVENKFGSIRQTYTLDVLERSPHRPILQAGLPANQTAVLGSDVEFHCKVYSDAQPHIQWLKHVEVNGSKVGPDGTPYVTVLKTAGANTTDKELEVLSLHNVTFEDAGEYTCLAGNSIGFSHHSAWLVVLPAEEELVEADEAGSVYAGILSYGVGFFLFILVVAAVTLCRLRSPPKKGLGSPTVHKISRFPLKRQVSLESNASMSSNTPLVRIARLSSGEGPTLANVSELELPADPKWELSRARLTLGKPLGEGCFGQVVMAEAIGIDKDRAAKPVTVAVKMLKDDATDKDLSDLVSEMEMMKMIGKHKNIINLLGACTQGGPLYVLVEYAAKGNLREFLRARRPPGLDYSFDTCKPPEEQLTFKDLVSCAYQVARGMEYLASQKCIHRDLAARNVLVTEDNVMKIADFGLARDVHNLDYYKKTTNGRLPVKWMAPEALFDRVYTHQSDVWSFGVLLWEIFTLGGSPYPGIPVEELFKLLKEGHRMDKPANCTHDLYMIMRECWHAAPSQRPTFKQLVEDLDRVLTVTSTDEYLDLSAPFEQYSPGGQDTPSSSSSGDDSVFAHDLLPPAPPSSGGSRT

Fer (mouse) = test: as above
Fes = Fes (UniProt P07332); test: as above
Sequence of Fes (P07332 whole entry, looked up): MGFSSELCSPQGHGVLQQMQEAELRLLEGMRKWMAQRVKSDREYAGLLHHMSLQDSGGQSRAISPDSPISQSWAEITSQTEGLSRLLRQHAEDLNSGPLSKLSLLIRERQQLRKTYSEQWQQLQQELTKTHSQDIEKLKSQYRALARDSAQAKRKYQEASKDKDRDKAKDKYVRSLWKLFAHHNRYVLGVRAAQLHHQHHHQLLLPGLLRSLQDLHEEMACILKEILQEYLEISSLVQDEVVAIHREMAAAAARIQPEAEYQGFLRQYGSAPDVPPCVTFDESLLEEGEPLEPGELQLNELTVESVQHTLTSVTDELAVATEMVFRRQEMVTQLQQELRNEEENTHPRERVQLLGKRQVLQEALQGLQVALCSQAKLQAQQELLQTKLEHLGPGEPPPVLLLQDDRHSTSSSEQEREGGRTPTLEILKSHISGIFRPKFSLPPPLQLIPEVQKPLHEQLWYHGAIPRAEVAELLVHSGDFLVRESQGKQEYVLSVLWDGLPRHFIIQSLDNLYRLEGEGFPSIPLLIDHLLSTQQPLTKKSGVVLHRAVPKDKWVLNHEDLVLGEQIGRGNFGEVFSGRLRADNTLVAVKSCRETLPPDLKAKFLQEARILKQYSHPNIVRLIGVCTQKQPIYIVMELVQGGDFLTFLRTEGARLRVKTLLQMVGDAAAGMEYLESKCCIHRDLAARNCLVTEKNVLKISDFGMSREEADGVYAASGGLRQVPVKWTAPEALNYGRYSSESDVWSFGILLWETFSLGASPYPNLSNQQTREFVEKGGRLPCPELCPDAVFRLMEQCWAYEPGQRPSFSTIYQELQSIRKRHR

Fyn = Fyn (UniProt P06241); test: as above
Sequence of Fyn (P06241 whole entry, looked up): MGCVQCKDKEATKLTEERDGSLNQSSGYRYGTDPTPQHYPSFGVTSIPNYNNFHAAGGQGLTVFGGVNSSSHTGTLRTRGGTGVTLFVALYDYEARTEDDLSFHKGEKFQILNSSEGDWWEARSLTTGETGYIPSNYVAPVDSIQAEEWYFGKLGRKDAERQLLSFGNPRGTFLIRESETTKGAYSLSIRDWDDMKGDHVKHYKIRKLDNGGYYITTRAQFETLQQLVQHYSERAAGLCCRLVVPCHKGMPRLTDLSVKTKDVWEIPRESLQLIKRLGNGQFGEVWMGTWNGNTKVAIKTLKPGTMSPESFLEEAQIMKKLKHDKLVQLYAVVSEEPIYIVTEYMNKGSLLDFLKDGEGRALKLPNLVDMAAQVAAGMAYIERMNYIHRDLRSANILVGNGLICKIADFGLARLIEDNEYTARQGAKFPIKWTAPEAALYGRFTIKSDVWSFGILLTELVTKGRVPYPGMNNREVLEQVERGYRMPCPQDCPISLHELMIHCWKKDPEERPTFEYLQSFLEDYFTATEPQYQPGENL

Hck = Hck (UniProt P08631); test: as above
Sequence of Hck (P08631 whole entry, looked up): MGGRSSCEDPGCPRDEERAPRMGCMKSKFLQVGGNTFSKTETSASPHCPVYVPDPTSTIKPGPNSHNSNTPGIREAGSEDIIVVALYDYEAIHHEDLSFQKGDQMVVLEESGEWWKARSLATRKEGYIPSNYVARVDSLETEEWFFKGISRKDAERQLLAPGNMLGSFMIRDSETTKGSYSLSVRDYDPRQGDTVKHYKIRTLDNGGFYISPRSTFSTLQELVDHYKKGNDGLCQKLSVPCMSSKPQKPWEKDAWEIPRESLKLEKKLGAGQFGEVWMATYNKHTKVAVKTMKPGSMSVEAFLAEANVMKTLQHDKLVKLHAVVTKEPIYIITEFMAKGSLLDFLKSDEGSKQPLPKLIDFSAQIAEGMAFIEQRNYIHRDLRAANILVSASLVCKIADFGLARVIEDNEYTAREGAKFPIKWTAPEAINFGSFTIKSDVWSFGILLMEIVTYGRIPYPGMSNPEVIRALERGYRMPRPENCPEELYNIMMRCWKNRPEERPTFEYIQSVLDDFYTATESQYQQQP

Jak2 = Jak2 (UniProt O60674); test: as above
MERTK = MERTK (UniProt Q12866); test: as above
c-Abl (mouse) = test: as above
c-Src = test: as above
Grb2 SH2 = Grb2 SH2 (UniProt P62993); test: SH2 binding enrichment of the phosphorylated peptide, bacterial display (enrichment ratio); higher = better substrate or ligand; peptides without Tyr show the background
Sequence of Grb2 SH2 (P62993 whole entry, looked up): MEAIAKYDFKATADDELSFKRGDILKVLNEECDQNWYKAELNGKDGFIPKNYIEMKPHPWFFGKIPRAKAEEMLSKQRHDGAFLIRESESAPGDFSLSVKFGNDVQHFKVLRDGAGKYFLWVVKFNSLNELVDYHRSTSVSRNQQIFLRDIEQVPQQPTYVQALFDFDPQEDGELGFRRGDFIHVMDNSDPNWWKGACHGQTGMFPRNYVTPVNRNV

SHP2-C SH2 = test: as above
c-Src SH2 = test: as above
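Throughout, for SH2 binding enrichment of the phosphorylated peptide, bacterial display: peptide library displayed on the E. coli surface as eCPX fusions, selected cells deep-sequenced, score is each peptide's frequency after selection divided by its frequency in the input.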
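Throughout, for phosphorylation enrichment, bacterial display: 11-residue human phosphosite peptides and single-mutation variants displayed on the E. coli surface, counted by deep sequencing, each peptide's frequency after selection divided by its frequency in the unselected input library; frequency after pTyr selection over input frequency; kinase dosed for 20-30% of maximal phosphorylation in three min.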

Sequence of EPHB1 (P54762 whole entry, looked up): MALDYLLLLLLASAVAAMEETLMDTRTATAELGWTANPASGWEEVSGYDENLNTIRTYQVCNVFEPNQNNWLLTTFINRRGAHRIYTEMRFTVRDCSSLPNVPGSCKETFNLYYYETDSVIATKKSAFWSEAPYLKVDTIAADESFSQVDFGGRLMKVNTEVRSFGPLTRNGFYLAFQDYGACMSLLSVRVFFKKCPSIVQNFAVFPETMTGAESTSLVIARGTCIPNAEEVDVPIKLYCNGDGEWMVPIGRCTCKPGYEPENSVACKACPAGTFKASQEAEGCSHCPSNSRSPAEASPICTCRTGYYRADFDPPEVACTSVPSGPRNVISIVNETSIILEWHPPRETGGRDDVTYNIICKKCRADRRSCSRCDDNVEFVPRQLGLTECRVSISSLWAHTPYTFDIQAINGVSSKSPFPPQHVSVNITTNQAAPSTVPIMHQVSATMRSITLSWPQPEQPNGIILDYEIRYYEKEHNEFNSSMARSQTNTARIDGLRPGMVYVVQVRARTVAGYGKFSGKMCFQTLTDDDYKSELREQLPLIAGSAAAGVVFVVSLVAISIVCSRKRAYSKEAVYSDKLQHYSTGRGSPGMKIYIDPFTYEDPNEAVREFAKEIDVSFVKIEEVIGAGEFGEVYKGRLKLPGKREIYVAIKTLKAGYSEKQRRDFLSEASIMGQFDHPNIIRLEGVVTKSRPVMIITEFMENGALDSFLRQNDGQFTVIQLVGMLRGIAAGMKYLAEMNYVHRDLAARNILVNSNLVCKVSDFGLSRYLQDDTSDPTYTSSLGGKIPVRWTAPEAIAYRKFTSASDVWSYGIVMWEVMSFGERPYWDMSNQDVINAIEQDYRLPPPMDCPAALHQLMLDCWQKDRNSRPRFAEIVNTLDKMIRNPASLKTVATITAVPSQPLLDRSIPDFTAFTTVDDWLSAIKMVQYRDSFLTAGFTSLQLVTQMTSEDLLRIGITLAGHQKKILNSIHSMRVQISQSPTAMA
Sequence of FGFR1 (P11362 whole entry, looked up): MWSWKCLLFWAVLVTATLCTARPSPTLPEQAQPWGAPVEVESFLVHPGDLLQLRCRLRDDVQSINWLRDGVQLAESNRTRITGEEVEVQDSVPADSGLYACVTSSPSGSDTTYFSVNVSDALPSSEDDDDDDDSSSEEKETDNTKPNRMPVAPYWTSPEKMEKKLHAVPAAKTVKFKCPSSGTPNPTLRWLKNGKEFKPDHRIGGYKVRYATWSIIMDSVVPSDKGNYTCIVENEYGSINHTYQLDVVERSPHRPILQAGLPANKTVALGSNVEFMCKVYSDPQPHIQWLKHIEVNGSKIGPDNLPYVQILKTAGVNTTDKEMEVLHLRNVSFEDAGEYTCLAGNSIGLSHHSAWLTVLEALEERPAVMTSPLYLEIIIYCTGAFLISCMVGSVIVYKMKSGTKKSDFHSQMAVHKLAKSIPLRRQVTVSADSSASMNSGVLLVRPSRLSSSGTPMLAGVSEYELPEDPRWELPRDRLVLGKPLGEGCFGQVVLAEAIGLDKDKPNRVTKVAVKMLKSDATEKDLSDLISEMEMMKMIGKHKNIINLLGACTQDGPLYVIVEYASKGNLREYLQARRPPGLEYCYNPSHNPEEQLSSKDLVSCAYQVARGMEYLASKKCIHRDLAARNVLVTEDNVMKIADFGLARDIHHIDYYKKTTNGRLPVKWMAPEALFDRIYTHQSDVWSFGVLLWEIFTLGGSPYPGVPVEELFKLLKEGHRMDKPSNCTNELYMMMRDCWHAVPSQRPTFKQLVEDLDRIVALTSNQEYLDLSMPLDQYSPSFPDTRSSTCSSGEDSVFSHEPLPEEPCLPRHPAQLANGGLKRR

With FTNRNYDLDYD [MYC_Y12] the phosphorylation enrichment (AncSZ) was 1.13, the phosphorylation enrichment (EPHB1) was 0.666 and the phosphorylation enrichment (EPHB2) was 0.637. It also gave a phosphorylation enrichment (FGFR1) of 0.69, a phosphorylation enrichment (FGFR3) of 0.591 and a phosphorylation enrichment (Fer (mouse)) of 0.58. For the same sequence, the phosphorylation enrichment (Fes) was 1.12, the phosphorylation enrichment (Fyn) was 0.607 and the phosphorylation enrichment (Hck) was 0.594. The phosphorylation enrichment (Jak2) was 1.3, the phosphorylation enrichment (MERTK) was 0.58 and the phosphorylation enrichment (c-Abl (mouse)) was 0.713. The phosphorylation enrichment (c-Src) was 0.586, the SH2 binding enrichment (Grb2 SH2) was 0.799 and the SH2 binding enrichment (SHP2-C SH2) was 0.517. It also gave an SH2 binding enrichment (c-Src SH2) of 3.05.
FTRNYYVRAVL [CYBA_Y88] was tested, and the phosphorylation enrichment (AncSZ) was 1.19, the phosphorylation enrichment (EPHB1) was 0.622 and the phosphorylation enrichment (EPHB2) was 0.609. The phosphorylation enrichment (FGFR1) was 0.629, the phosphorylation enrichment (FGFR3) was 0.685 and the phosphorylation enrichment (Fer (mouse)) was 0.526. It also gave a phosphorylation enrichment (Fes) of 1.11, a phosphorylation enrichment (Fyn) of 0.511 and a phosphorylation enrichment (Hck) of 0.566. The phosphorylation enrichment (Jak2) was 1.06, the phosphorylation enrichment (MERTK) was 0.506 and the phosphorylation enrichment (c-Abl (mouse)) was 0.976. The phosphorylation enrichment (c-Src) was 0.468, the SH2 binding enrichment (Grb2 SH2) was 0.885 and the SH2 binding enrichment (SHP2-C SH2) was 0.78. It also gave an SH2 binding enrichment (c-Src SH2) of 0.53.
For FVKEPYIQSRF [HIPK4_Y175_YF], the phosphorylation enrichment (AncSZ) was 0.569, the phosphorylation enrichment (EPHB1) was 0.402 and the phosphorylation enrichment (EPHB2) was 0.452. For the same sequence, the phosphorylation enrichment (FGFR1) was 0.375, the phosphorylation enrichment (FGFR3) was 0.479 and the phosphorylation enrichment (Fer (mouse)) was 0.43. The phosphorylation enrichment (Fes) was 0.702, the phosphorylation enrichment (Fyn) was 0.374 and the phosphorylation enrichment (Hck) was 0.402. The phosphorylation enrichment (Jak2) was 0.607, the phosphorylation enrichment (MERTK) was 0.39 and the phosphorylation enrichment (c-Abl (mouse)) was 0.447. The phosphorylation enrichment (c-Src) was 0.418, the SH2 binding enrichment (Grb2 SH2) was 0.942 and the SH2 binding enrichment (SHP2-C SH2) was 0.785. The SH2 binding enrichment (c-Src SH2) was 0.509.
Work on FVPSFYHAFSG [ACTN4_Y265_S262P_YF] yielded a phosphorylation enrichment (AncSZ) of 0.711, a phosphorylation enrichment (EPHB1) of 1.23 and a phosphorylation enrichment (EPHB2) of 0.756. For the same sequence, the phosphorylation enrichment (FGFR1) was 0.796, the phosphorylation enrichment (FGFR3) was 0.824 and the phosphorylation enrichment (Fer (mouse)) was 0.444. The phosphorylation enrichment (Fes) was 0.83, the phosphorylation enrichment (Fyn) was 1.48 and the phosphorylation enrichment (Hck) was 1.48. It also gave a phosphorylation enrichment (Jak2) of 0.823, a phosphorylation enrichment (MERTK) of 7.34 and a phosphorylation enrichment (c-Abl (mouse)) of 0.835. For the same sequence, the phosphorylation enrichment (c-Src) was 1.88, the SH2 binding enrichment (Grb2 SH2) was 0.993 and the SH2 binding enrichment (SHP2-C SH2) was 1.2. The SH2 binding enrichment (c-Src SH2) was 0.921.
Work on FVSIVCNDSGE [TSC2_Y1650_Y1650C] yielded a phosphorylation enrichment (AncSZ) of 1.12, a phosphorylation enrichment (EPHB1) of 0.644 and a phosphorylation enrichment (EPHB2) of 0.646. The phosphorylation enrichment (FGFR1) was 0.534, the phosphorylation enrichment (FGFR3) was 0.921 and the phosphorylation enrichment (Fer (mouse)) was 0.613. For the same sequence, the phosphorylation enrichment (Fes) was 1.21, the phosphorylation enrichment (Fyn) was 0.476 and the phosphorylation enrichment (Hck) was 0.537. For the same sequence, the phosphorylation enrichment (Jak2) was 1.18, the phosphorylation enrichment (MERTK) was 0.464 and the phosphorylation enrichment (c-Abl (mouse)) was 0.767. The phosphorylation enrichment (c-Src) was 0.478, the SH2 binding enrichment (Grb2 SH2) was 0.583 and the SH2 binding enrichment (SHP2-C SH2) was 0.66. It also gave an SH2 binding enrichment (c-Src SH2) of 0.57.
In the case of FYNSEYGELSE [FLT4_Y1337], the phosphorylation enrichment (AncSZ) is reported as 1.47, the phosphorylation enrichment (EPHB1) is reported as 0.729 and the phosphorylation enrichment (EPHB2) is reported as 0.956. It also gave a phosphorylation enrichment (FGFR1) of 0.628, a phosphorylation enrichment (FGFR3) of 0.932 and a phosphorylation enrichment (Fer (mouse)) of 0.684. The phosphorylation enrichment (Fes) was 1.36, the phosphorylation enrichment (Fyn) was 1.59 and the phosphorylation enrichment (Hck) was 0.997. For the same sequence, the phosphorylation enrichment (Jak2) was 1.58, the phosphorylation enrichment (MERTK) was 0.589 and the phosphorylation enrichment (c-Abl (mouse)) was 0.986. It also gave a phosphorylation enrichment (c-Src) of 1.69, an SH2 binding enrichment (Grb2 SH2) of 0.886 and an SH2 binding enrichment (SHP2-C SH2) of 0.805. For the same sequence, the SH2 binding enrichment (c-Src SH2) was 0.748.
With GEFFRYLAEVA [YWHAG_Y133_D129E_YF] the phosphorylation enrichment (AncSZ) was 0.873, the phosphorylation enrichment (EPHB1) was 0.46 and the phosphorylation enrichment (EPHB2) was 0.501. For the same sequence, the phosphorylation enrichment (FGFR1) was 0.498, the phosphorylation enrichment (FGFR3) was 0.767 and the phosphorylation enrichment (Fer (mouse)) was 0.51. The phosphorylation enrichment (Fes) was 1.17, the phosphorylation enrichment (Fyn) was 0.575 and the phosphorylation enrichment (Hck) was 0.431. For the same sequence, the phosphorylation enrichment (Jak2) was 1.02, the phosphorylation enrichment (MERTK) was 0.438 and the phosphorylation enrichment (c-Abl (mouse)) was 0.747. The phosphorylation enrichment (c-Src) was 0.442, the SH2 binding enrichment (Grb2 SH2) was 0.924 and the SH2 binding enrichment (SHP2-C SH2) was 0.673. The SH2 binding enrichment (c-Src SH2) was 0.454.
GESQGYDIMEP [MSH2_Y863] gave a phosphorylation enrichment (AncSZ) of 1.14, a phosphorylation enrichment (EPHB1) of 0.541 and a phosphorylation enrichment (EPHB2) of 0.555. It also gave a phosphorylation enrichment (FGFR1) of 0.424, a phosphorylation enrichment (FGFR3) of 0.642 and a phosphorylation enrichment (Fer (mouse)) of 0.441. The phosphorylation enrichment (Fes) was 0.94, the phosphorylation enrichment (Fyn) was 0.454 and the phosphorylation enrichment (Hck) was 0.487. It also gave a phosphorylation enrichment (Jak2) of 0.827, a phosphorylation enrichment (MERTK) of 0.472 and a phosphorylation enrichment (c-Abl (mouse)) of 0.605. For the same sequence, the phosphorylation enrichment (c-Src) was 0.419, the SH2 binding enrichment (Grb2 SH2) was 0.683 and the SH2 binding enrichment (SHP2-C SH2) was 0.85. For the same sequence, the SH2 binding enrichment (c-Src SH2) was 5.63.
